Data: patent publication US20220040297A1 (Chugai, published 2022)
Numbering of substitutions follows the chain as printed. In names and notes the source's numbering stands.

B1: GLS3000 V94N (antibody, name in Kabat numbering, V domains shown)
VH: QVQLVESGGGVVQPGRSLRLSCAASGFTFSNAWMHWVRQAPGKGLEWVAQIKAKSNNYATYYAESVKGRFTISRDDSKNSLYLQMNSLKTEDTAVYYCRYVHYGAYYGVDAWGQGTTVTVSS
VL: DIVMTQSPLSLPVTPGEPASISCRSSQSLVHSNRNTYLHWYQQKPGQAPRLLIYKVSNRFSGVPDRFSGSGSGTDFTLKISRVEAEDVGVYYCGQGTQNPYTFGQGTKLEIK
notes: one-arm format as m2
B2: GLS3000 V94T (antibody, name in Kabat numbering, V domains shown)
VH: B1 VH
VL: B1 VL with N99T
notes: one-arm format as m2
B3: GLS3000 Y32D (antibody, name in Kabat numbering, V domains shown)
VH: B1 VH
VL: B1 VL with Y37D, N99V
notes: one-arm format as m2
B4: GLS3000 V94S (antibody, name in Kabat numbering, V domains shown)
VH: B1 VH
VL: B1 VL with N99S
notes: one-arm format as m2
B5: GLS3000 V94A (antibody, name in Kabat numbering, V domains shown)
VH: B1 VH
VL: B1 VL with N99A
notes: one-arm format as m2
B6: GLS3000 V94M (antibody, name in Kabat numbering, V domains shown)
VH: B1 VH
VL: B1 VL with N99M
notes: one-arm format as m2
B7: GLS3000 V27cY (antibody, name in Kabat numbering, V domains shown)
VH: B1 VH
VL: B1 VL with V30Y, N99V
notes: one-arm format as m2
B8: GLS3000 Y32F (antibody, name in Kabat numbering, V domains shown)
VH: B1 VH
VL: B1 VL with Y37F, N99V
notes: one-arm format as m2
B9: GLS3000 V94L (antibody, name in Kabat numbering, V domains shown)
VH: B1 VH
VL: B1 VL with N99L
notes: one-arm format as m2
B10: GLS3000 V51D (antibody, name in Kabat numbering, V domains shown)
VH: B1 VH
VL: B1 VL with V56D, N99V
notes: one-arm format as m2
B11: GLS3000 V94F (antibody, name in Kabat numbering, V domains shown)
VH: B1 VH
VL: B1 VL with N99F
notes: one-arm format as m2
B12: GLS3000 V51E (antibody, name in Kabat numbering, V domains shown)
VH: B1 VH
VL: B1 VL with V56E, N99V
notes: one-arm format as m2
B13: GLS3000 V94R (antibody, name in Kabat numbering, V domains shown)
VH: B1 VH
VL: B1 VL with N99R
notes: one-arm format as m2
B14: GLS3000 Y96D (antibody, name in Kabat numbering, V domains shown)
VH: B1 VH
VL: B1 VL with N99V, Y101D
notes: one-arm format as m2
B15: GLS3000 V51G (antibody, name in Kabat numbering, V domains shown)
VH: B1 VH
VL: B1 VL with V56G, N99V
notes: one-arm format as m2
B16: GLS3000 V51P (antibody, name in Kabat numbering, V domains shown)
VH: B1 VH
VL: B1 VL with V56P, N99V
notes: one-arm format as m2
B17: GLS3000 V94D (antibody, name in Kabat numbering, V domains shown)
VH: B1 VH
VL: B1 VL with N99D
notes: one-arm format as m2
B18: GLS3000 V94W (antibody, name in Kabat numbering, V domains shown)
VH: B1 VH
VL: B1 VL with N99W
notes: one-arm format as m2
B19: GLS3000 V51I (antibody, name in Kabat numbering, V domains shown)
VH: B1 VH
VL: B1 VL with V56I, N99V
notes: one-arm format as m2
B20: GLS3000 V94I (antibody, name in Kabat numbering, V domains shown)
VH: B1 VH
VL: B1 VL with N99I
notes: one-arm format as m2
B21: GLS3000 Y96E (antibody, name in Kabat numbering, V domains shown)
VH: B1 VH
VL: B1 VL with N99V, Y101E
notes: one-arm format as m2
B22: GLS3000 V94Y (antibody, name in Kabat numbering, V domains shown)
VH: B1 VH
VL: B1 VL with N99Y
notes: one-arm format as m2
B23: GLS3000 Y96F (antibody, name in Kabat numbering, V domains shown)
VH: B1 VH
VL: B1 VL with N99V, Y101F
notes: one-arm format as m2
B24: GLS3000 V94E (antibody, name in Kabat numbering, V domains shown)
VH: B1 VH
VL: B1 VL with N99E
notes: one-arm format as m2
B25: GLS3000 Y96L (antibody, name in Kabat numbering, V domains shown)
VH: B1 VH
VL: B1 VL with N99V, Y101L
notes: one-arm format as m2
B26: GLS3000 V94K (antibody, name in Kabat numbering, V domains shown)
VH: B1 VH
VL: B1 VL with N99K
notes: one-arm format as m2
B27: GLS3000 V94H (antibody, name in Kabat numbering, V domains shown)
VH: B1 VH
VL: B1 VL with N99H
notes: one-arm format as m2
B28: GLS3000 Y32A (antibody, name in Kabat numbering, V domains shown)
VH: B1 VH
VL: B1 VL with Y37A, N99V
notes: one-arm format as m2
B29: GLS3000 V94Q (antibody, name in Kabat numbering, V domains shown)
VH: B1 VH
VL: B1 VL with N99Q
notes: one-arm format as m2
B30: GLS3000 Y96H (antibody, name in Kabat numbering, V domains shown)
VH: B1 VH
VL: B1 VL with N99V, Y101H
notes: one-arm format as m2
B31: GLS3000 V94P (antibody, name in Kabat numbering, V domains shown)
VH: B1 VH
VL: B1 VL with N99P
notes: one-arm format as m2
B32: GLS3000 V94G (antibody, name in Kabat numbering, V domains shown)
VH: B1 VH
VL: B1 VL with N99G
notes: one-arm format as m2
B33: GLS3000 Y32P (antibody, name in Kabat numbering, V domains shown)
VH: B1 VH
VL: B1 VL with Y37P, N99V
notes: one-arm format as m2
B34: CE115HA000 H35A (antibody, name in Kabat numbering, V domains shown)
VH: B1 VH with H35A
VL: B1 VL with N99V
B35: CE115HA000 A56G (antibody, name in Kabat numbering, V domains shown)
VH: B1 VH with A59G
VL: B1 VL with N99V
B36: CE115HA000 A52aD (antibody, name in Kabat numbering, V domains shown)
VH: B1 VH with A53D
VL: B1 VL with N99V
B37: CE115HA000 A52aV (antibody, name in Kabat numbering, V domains shown)
VH: B1 VH with A53V
VL: B1 VL with N99V
B38: CE115HA000 A56L (antibody, name in Kabat numbering, V domains shown)
VH: B1 VH with A59L
VL: B1 VL with N99V
B39: CE115HA000 A32Y (antibody, name in Kabat numbering, V domains shown)
VH: B1 VH with A32Y
VL: B1 VL with N99V
B40: CE115HA000 A52aE (antibody, name in Kabat numbering, V domains shown)
VH: B1 VH with A53E
VL: B1 VL with N99V
B41: CE115HA000 A52aS (antibody, name in Kabat numbering, V domains shown)
VH: B1 VH with A53S
VL: B1 VL with N99V
B42: CE115HA000 A52aG (antibody, name in Kabat numbering, V domains shown)
VH: B1 VH with A53G
VL: B1 VL with N99V
B43: CE115HA000 A52aP (antibody, name in Kabat numbering, V domains shown)
VH: B1 VH with A53P
VL: B1 VL with N99V
B44: CE115HA000 A56K (antibody, name in Kabat numbering, V domains shown)
VH: B1 VH with A59K
VL: B1 VL with N99V
B45: CE115HA000 A56D (antibody, name in Kabat numbering, V domains shown)
VH: B1 VH with A59D
VL: B1 VL with N99V

molecular target: CD3ε homodimer protein (human, UniProt P07766 23-126, limits assumed); assay: SPR, immobilized CD3ε homodimer;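 also: biacore T200 surface plasmon resonance at 25 °C, antibody variants flowed as analytes over amine-coupled CD3ε homodimer on a CM4 chip, variant binding amount divided by that of GLS3000 antibody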
Sequence (P07766 23-126 limits assumed): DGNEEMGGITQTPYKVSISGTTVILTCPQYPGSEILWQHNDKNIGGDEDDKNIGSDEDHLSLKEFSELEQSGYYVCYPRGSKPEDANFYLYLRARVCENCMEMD

Going from B1 to B2, the “ratio of amounts bound (vs GLS3000)” value falls from 1.05 to 0.93.

Compared with B3, B4 is higher in “ratio of amounts bound (vs GLS3000)” value: 0.23 for the first, 0.93 for the second.

Going from B5 to B6, the “ratio of amounts bound (vs GLS3000)” value falls from 1.05 to 0.44.

Going from B7 to B8, the “ratio of amounts bound (vs GLS3000)” value falls from 0.77 to 0.29.

Going from B9 to B10, the “ratio of amounts bound (vs GLS3000)” value falls from 0.44 to 0.33.

First: B11
Second: B12
The “ratio of amounts bound (vs GLS3000)” value of the first is higher: 0.71 for the first, 0.64 for the second.

First: B13
Second: B14
The “ratio of amounts bound (vs GLS3000)” value of the first is higher: 0.66 for the first, 0.17 for the second.

Going from B15 to B16, the “ratio of amounts bound (vs GLS3000)” value falls from 0.84 to 0.32.

Compared with B17, B18 is lower in “ratio of amounts bound (vs GLS3000)” value: 0.89 for the first, 0.58 for the second.

Compared with B19, B20 is lower in “ratio of amounts bound (vs GLS3000)” value: 0.81 for the first, 0.66 for the second.

First: B21
Second: B22
The “ratio of amounts bound (vs GLS3000)” value of the first is lower: 0.17 for the first, 0.63 for the second.

Going from B23 to B24, the “ratio of amounts bound (vs GLS3000)” value falls from 1.17 to 0.5.

Compared with B25, B26 is higher in “ratio of amounts bound (vs GLS3000)” value: 0.32 for the first, 0.57 for the second.

Going from B27 to B28, the “ratio of amounts bound (vs GLS3000)” value falls from 0.78 to 0.24.

First: B29
Second: B30
The “ratio of amounts bound (vs GLS3000)” value of the first is higher: 0.76 for the first, 0.23 for the second.

Compared with B31, B32 is lower in “ratio of amounts bound (vs GLS3000)” value: 1.26 for the first, 0.48 for the second.

In the case of B33, the “ratio of amounts bound (vs GLS3000)” value is reported as 0.24.

molecular target: T1, CD3ε homodimer protein (human, UniProt P07766 23-126, limits assumed, sulfo-tag or biotin label in some ECL assays); assay: SPR, CD3ε homodimer on chip;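 also: biacore SPR with antibody variants flowed as analyte over amine-coupled CD3ε homodimer on a CM chip, bound amount of each single-residue H chain variant over that of parent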
T1 construct: also called human CD3ε homodimer protein; CD3 (CD3ε)
T1 sequence (P07766 23-126 limits assumed): as above
Procedure: An appropriate amount of CD3ε homodimer protein was immobilized onto Sensor chip CM4 (GE Healthcare Japan Corp.) by the amine coupling method. Then, the antibody having an appropriate concentration was injected thereto as an analyte and allowed to interact with the CD3ε homodimer protein on the sensor chip. Then, the sensor chip was regenerated by the injection of 10 mmol/L glycine-HCl (pH 1.5). The assay was conducted at 25° C., and HBS-EP+ (GE Healthcare Japan Corp.) was used as a running buffer. […] Each parameter was calculated using Biacore T200 Evaluation Software (GE Healthcare Japan Corp.).
Specifically, when the amount of the antibody comprising CE115HA000 bound was defined as X and the amount of the H chain one-amino acid altered form bound was defined as Y, a value of Z (ratio of amounts bound)=Y/X was used.

Going from B34 to B35, the “ratio of amounts bound vs CE115HA000” value rises from 0.17 to 0.61.

First: B36
Second: B37
The “ratio of amounts bound vs CE115HA000” value of the first is higher: 1.34 for the first, 0.52 for the second.

First: B38
Second: B39
The “ratio of amounts bound vs CE115HA000” value of the first is higher: 0.8 for the first, 0.33 for the second.

First: B40
Second: B41
The “ratio of amounts bound vs CE115HA000” value of the first is lower: 0.57 for the first, 1.05 for the second.

Compared with B42, B43 is lower in “ratio of amounts bound vs CE115HA000” value: 0.81 for the first, 0.15 for the second.

Going from B44 to B45, the “ratio of amounts bound vs CE115HA000” value falls from 1.35 to 0.51.
